[ ]: non-standard residue; d: D form. The star is where a group is joined. 5FAM = O=C1OC2(c3ccc(O)cc3Oc3cc(O)ccc32)c2ccc(C(=O)*)cc21; pT = C[C@@H](OP(=O)(O)O)[C@H](N)C(=O)O
Assays:
[1] = target: T1, PLK2 Polo-box domain (Homo sapiens, UniProt Q9NYY3); experiment: fluorescence polarization competition with fluorescein-labeled phosphopeptide; format: binding
T1 sequence (Q9NYY3 355-685): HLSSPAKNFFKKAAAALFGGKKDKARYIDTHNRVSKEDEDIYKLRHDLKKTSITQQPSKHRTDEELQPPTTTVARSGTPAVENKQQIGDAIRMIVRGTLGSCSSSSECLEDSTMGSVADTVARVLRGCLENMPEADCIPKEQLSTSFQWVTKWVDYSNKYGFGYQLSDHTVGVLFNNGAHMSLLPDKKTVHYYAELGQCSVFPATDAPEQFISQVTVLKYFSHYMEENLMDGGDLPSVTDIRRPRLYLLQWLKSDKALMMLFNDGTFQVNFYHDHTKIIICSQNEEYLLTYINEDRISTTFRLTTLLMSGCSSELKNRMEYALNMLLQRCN

[2] = target: Polo-like kinase 1 (PLK1) Polo-box domain (Homo sapiens, UniProt P53350); experiment: microscale thermophoresis with labeled PLK1 PBD; format: binding
Sequence of Polo-like kinase 1 (PLK1) Polo-box domain (P53350 326-603): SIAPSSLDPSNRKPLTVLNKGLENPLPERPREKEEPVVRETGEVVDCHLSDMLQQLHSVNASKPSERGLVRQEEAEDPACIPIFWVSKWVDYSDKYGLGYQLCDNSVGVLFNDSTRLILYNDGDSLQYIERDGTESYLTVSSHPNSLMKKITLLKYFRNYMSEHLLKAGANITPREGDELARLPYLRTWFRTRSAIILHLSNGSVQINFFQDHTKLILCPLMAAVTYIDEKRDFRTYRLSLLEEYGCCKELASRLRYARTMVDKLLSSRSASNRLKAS

[3] = target: T2, Polo-box domain (PBD) of human PLK3 (aa 335–646) (human, UniProt Q9H4B4 335-646); experiment: fluorescence polarisation
T2 sequence (looked up): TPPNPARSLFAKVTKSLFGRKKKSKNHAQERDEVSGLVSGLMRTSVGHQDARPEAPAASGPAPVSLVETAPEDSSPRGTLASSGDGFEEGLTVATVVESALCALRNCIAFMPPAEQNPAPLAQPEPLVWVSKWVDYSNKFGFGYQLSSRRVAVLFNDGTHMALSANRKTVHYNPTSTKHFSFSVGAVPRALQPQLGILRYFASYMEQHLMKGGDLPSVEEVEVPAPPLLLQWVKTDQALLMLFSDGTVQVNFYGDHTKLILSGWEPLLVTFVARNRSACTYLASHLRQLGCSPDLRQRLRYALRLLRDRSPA

[4] = target: T3, Polo-box domain (PBD) of human PLK2 (aa 355–685) (human, UniProt Q9NYY3 355-685); experiment: fluorescence polarisation
T3 sequence (looked up): T1 sequence (Q9NYY3 355-685)

[5] = target: Polo-box domain (PBD) of human PLK1 (aa 326–603) (human, UniProt P53350 326-603); experiment: fluorescence polarisation
Sequence of Polo-box domain (PBD) of human PLK1 (aa 326–603) (P53350 326-603): as the sequence (P53350 326-603) above

`CCOC(=O)c1oc2ccccc2c1CBr` [MCC1019, 3-bromomethyl-benzofuran-2-carboxylic acid ethyl ester] gave an IC50 [1] of 44.1 ± 14.4 µM and a Kd [2] of 18.9 µM.

B1: 5-carboxyfluorescein-GPLATSpTPKNG-OH (peptide)
peptide: 5FAM-GPLATS[pT]PKNG-OH
SMILES: CC(C)C[C@H](NC(=O)[C@@H]1CCCN1C(=O)CNC(=O)c1ccc2c(c1)C(=O)OC21c2ccc(O)cc2Oc2cc(O)ccc21)C(=O)N[C@@H](C)C(=O)N[C@H](C(=O)N[C@@H](CO)C(=O)N[C@H](C(=O)N1CCC[C@H]1C(=O)N[C@@H](CCCCN)C(=O)N[C@@H](CC(N)=O)C(=O)NCC(=O)O)[C@@H](C)OP(=O)(O)O)[C@@H](C)O
B1: binds [3].

B2: 5-carboxyfluorescein-GPMQTSpTPKNG-OH (peptide)
peptide: 5FAM-GPMQTS[pT]PKNG-OH
SMILES: CSCC[C@H](NC(=O)[C@@H]1CCCN1C(=O)CNC(=O)c1ccc2c(c1)C(=O)OC21c2ccc(O)cc2Oc2cc(O)ccc21)C(=O)N[C@@H](CCC(N)=O)C(=O)N[C@H](C(=O)N[C@@H](CO)C(=O)N[C@H](C(=O)N1CCC[C@H]1C(=O)N[C@@H](CCCCN)C(=O)N[C@@H](CC(N)=O)C(=O)NCC(=O)O)[C@@H](C)OP(=O)(O)O)[C@@H](C)O
B2: binds [4].

B3: 5-carboxyfluorescein-GPMQSpTPLNG-OH (peptide)
peptide: 5FAM-GPMQS[pT]PLNG-OH
SMILES: CSCC[C@H](NC(=O)[C@@H]1CCCN1C(=O)CNC(=O)c1ccc2c(c1)C(=O)OC21c2ccc(O)cc2Oc2cc(O)ccc21)C(=O)N[C@@H](CCC(N)=O)C(=O)N[C@@H](CO)C(=O)N[C@H](C(=O)N1CCC[C@H]1C(=O)N[C@@H](CC(C)C)C(=O)N[C@@H](CC(N)=O)C(=O)NCC(=O)O)[C@@H](C)OP(=O)(O)O
B3: binds [5].

Reference: PMC6804483 (Acta Pharmaceutica Sinica. B, 2019)
